Measured values as given in PMC11840766 (ACS Omega, 2025).

Target: T1, extracellular protein domain (position 43-300) of human CD38 (Homo sapiens, UniProt P28907)
T1 construct: human CD38, extracellular domain, position 43-300; also called CD38 (extracellular domain); source: kindly provided by Dr. Hanna Tegel
Experiment: SPR; ProteOn XPR36; scFv_(CD38) sortase-coupled to a G5-silk coating on bare gold outside the instrument; CD38 extracellular domain (printed: 200 mM) in PBS pH 7.4/0.01% Tween 20 flown at 25 uL/min, 30 min
Details: both partners purified

B1: scFv_(CD38)-silk (scFv_(CD38) sortase-coupled to the N-terminus of G5-FN-4RepCT), as silk coating (scFv, V domains shown)
VH: QVQLVQSGAEVKKPGSSVKVSCKPSGGTFRSYAISWVRQAPGQGLEWMGRIIVFLGKVNYAQRFQGRVTLTADKSTTTAYMELSSLRSEDTAVYYCTGEPGARDPDAFDIWGQGTMVTVSS
VL: DIQMTQSPSSLSASVGDRVTITCRASQGIRSWLAWYQQKPEKAPKSLIYAASSLQSGVPSRFSGSGSGTDFTLTISSLQPEDFATYYCQQYNNYPLTFGGGTKVEIK
notes: VH of the anti-CD38 scFv; 3xG4S linker, written out from the printed name; VL of the anti-CD38 scFv; what is left of the sortase recognition tag LPETGG after sortase A cleaves between threonine and glycine; the five N-terminal glycines of G5-silk, told in words; 4RepCT, a miniature form of the major ampullate spidroin 1 (MaSp 1) from Euprosthenops australis; The GG-His6 end is lost on coupling; …
binding result: binds
